Consider one protein from publication PMC4157730 (Journal of molecular biology, 2012).

The series “AUC” concerns the molecule itself. As to the kind of experiment: AUC.
Series [1] concerns the molecule itself. As to the kind of experiment: negative staining transmission electron microscopy.

B1: human apolipoprotein (apo) C-II (natural protein, UniProt P02655 23-101, looked up)
chain: TQQPQQDEMPSPTFLTQVKESLSSYWESAKTAAQNLYEKTYLPAVDEKLRDLYSKSTAAMSTYTGIFTDQVLSVLKGEE
As usually defined, the stoichiometry N is the number of molecules, sites or subunits per partner or assembly. Protein B1 returned a Ka in the series “AUC” of 3.27e+11 M⁻¹. Besides, the “stoichiometry N” value in series [1] was approximately 621 subunits.
